According to the supplement of paper PMC9732359:
± gives the uncertainty stated by the source.

Assay: protein stability index of a GFP-peptide fusion (yeast GPS) (PSI 1-4); higher = more stable; sorted into four equal gates, so the index is relative within each strain
How it was run: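 Yeast carrying a pooled library were grown to mid-log phase in leucine-free medium. Each library plasmid expresses Cherry and has a tiled 17-residue yeast protein peptide fused downstream of GFP. Cells were sorted into four equal gates by GFP/Cherry ratio, and plasmids from each gate were PCR-amplified, Illumina-sequenced and assigned to strains by barcode. Summing, across gates, the read frequency times the gate number gave each peptide's protein stability index.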

Row | Sequence | protein stability index (doa10∆) | protein stability index (pdr5∆) | protein stability index (san1∆) | protein stability index (ubr1∆)
1 | PFDKKSNSALFRAVGEG [FAS1] | 2.92 ± 0.074 | 2.92 ± 0.082 | 2.85 ± 0.052 | 2.91 ± 0.063
2 | LLAEEEELILPNTKDAM [PRP8] | 3.16 ± 0.089 | 3.44 ± 0.072 | 3.36 ± 0.063 | 3.04 ± 0.079
3 | IVDTSGRHHQEEELFQE [SRP54] | 3.31 ± 0.07 | 3.13 ± 0.043 | 3.07 ± 0.056 | 3.24 ± 0.053
4 | IELVVTEKEEAVAKAAE [RPL17A] | 3.41 ± 0.064 | 3.33 ± 0.05 | 3.27 ± 0.04 | 3.25 ± 0.047
5 | ELIIDKVTCSSNSSSSP [MED1] | 2.72 ± 0.058 | 2.75 ± 0.065 | 2.79 ± 0.054 | 2.72 ± 0.048
6 | AALANANNNINSASSAP [SWI1] | 2.55 ± 0.088 | 1.91 ± 0.068 | 2.88 ± 0.13 | 2.55 ± 0.12
7 | LDLIPHSSSVFKGTDFV [SRB4] | 2.42 ± 0.062 | 2.74 ± 0.057 | 2.89 ± 0.068 | 2.4 ± 0.041
8 | MYQEWEDETVKVAQLRQ [NSL1] | 3.63 ± 0.085 | 3.47 ± 0.076 | 3.372 ± 0.032 | 3.5 ± 0.07
9 | FNGADIRNCATEAGFFA [RPT4] | 3.32 ± 0.065 | 3.38 ± 0.079 | 3.3 ± 0.057 | 3.22 ± 0.048
10 | PQQSRYISFIKDDRFVP [RPN2] | 2.67 ± 0.055 | 2.87 ± 0.036 | 2.98 ± 0.044 | 3.11 ± 0.035
11 | YKPGSITLENITRLCQT [MED1] | 2.14 ± 0.044 | 2.23 ± 0.041 | 1.79 ± 0.046 | 1.99 ± 0.032
12 | DINTIKLQLSFVLQMVG [SRP72] | 1.26 ± 0.092 | 1.88 ± 0.066 | 1.32 ± 0.11 | 1.57 ± 0.062
13 | IELDQVLNMLYWVPDWD [RPO21] | 2.84 ± 0.095 | 2.32 ± 0.068 | 2.17 ± 0.11 | 2.51 ± 0.057
14 | ESFPDDIPLAKALDNAC [CDC53] | 2.58 ± 0.07 | 2.97 ± 0.058 | 2.67 ± 0.055 | 2.8 ± 0.045
15 | KEKVSNGGVGVDVELIT [FAS2] | 2.96 ± 0.046 | 3.13 ± 0.062 | 3.11 ± 0.056 | 3.05 ± 0.05
16 | NPRKRKASVLEISPQDS [GAL11] |  |  |  | 3.1 ± 0.13
17 | DNWRREFLKWTPNVNVL [ISW2] | 1.46 ± 0.098 | 2.42 ± 0.12 |  | 2.31 ± 0.07
18 | KDGETTDANGKTIVTGG [RPO26] | 3.39 ± 0.076 | 3.32 ± 0.047 | 3.37 ± 0.059 | 3.33 ± 0.047
19 | GIRIISLTYKKISLRDI [RPN3] | 1.78 ± 0.068 | 1.4 ± 0.065 | 1.29 ± 0.15 | 1.5 ± 0.053
20 | DYRVLVDKSRKVAHTSY [PRE8] | 2.81 ± 0.12 | 2.48 ± 0.13 | 2.3 ± 0.13 | 2.08 ± 0.095
21 | DEEENGSSDEDLKSLNV [SSN2] | 3.24 ± 0.11 | 3.54 ± 0.1 | 3.35 ± 0.057 | 3.23 ± 0.093
22 | IIQGRKNFDMLNSMEKD [PCI8] | 2.63 ± 0.083 | 2.77 ± 0.074 | 2.95 ± 0.046 | 2.71 ± 0.047
23 | RWKRFTIGAIFLNHAFD [CDC53] | 2.54 ± 0.065 | 2 ± 0.069 | 2.18 ± 0.099 | 1.53 ± 0.048
24 | RDDLFVRNLQGIQEVVH [NUT1] | 2.9 ± 0.09 | 3.2 ± 0.094 | 3.15 ± 0.073 | 3.23 ± 0.068
25 | RAPKVIHGQDFQFFPKE [ISW2] | 2.56 ± 0.068 | 2.47 ± 0.069 | 3.17 ± 0.065 | 2.83 ± 0.052
26 | DNCCDFKVRTNLNDKFG [MED1] | 2.74 ± 0.19 | 3.22 ± 0.2 | 2.79 ± 0.15 | 3.08 ± 0.092
